Consider 3 substances from patent publication US20170044609.

Data set [1] concerns the target SHARP (SPEN) (Mus musculus) (UniProt Q62504). To be noted: UV crosslinked RIP-qPCR.
The test system of another data set is RALY. To be noted: UV crosslinked RIP; RAP-MS.
The subject of another data set is RBM15 (Mus musculus). To be noted: UV crosslinked RIP; RAP-MS.
The next data set relates to MYEF2 (Mus musculus). To be noted: UV crosslinked RIP; RAP-MS.
Another data set relates to hnRNPC. To be noted: UV crosslinked RIP; RAP-MS.
A further data set concerns CELF1 (Mus musculus). To be noted: UV crosslinked RIP; RAP-MS.
The next data set deals with hnRNPM (Mus musculus). To be noted: RAP-MS, UV crosslinked, denaturing.
Data set [2] concerns SAF-A (hnRNPU) (Mus musculus). To be noted: RAP-MS, UV crosslinked, denaturing.
Data set [3] relates to ΔRS-LBR deletion of amino acids 71-90 (Homo sapiens). To be noted: FLAG IP RT-qPCR, UV crosslinked. For orientation: Real-time PCR tracks product formation cycle by cycle.
The test system of the next data set is PTBP1 (Mus musculus). To be noted: UV crosslinked RIP; CLIP site 10859-11344.

Like-named read-outs stand apart in the source and are kept apart here.

Sequence of UniProt Q62504 (Q62504 whole entry): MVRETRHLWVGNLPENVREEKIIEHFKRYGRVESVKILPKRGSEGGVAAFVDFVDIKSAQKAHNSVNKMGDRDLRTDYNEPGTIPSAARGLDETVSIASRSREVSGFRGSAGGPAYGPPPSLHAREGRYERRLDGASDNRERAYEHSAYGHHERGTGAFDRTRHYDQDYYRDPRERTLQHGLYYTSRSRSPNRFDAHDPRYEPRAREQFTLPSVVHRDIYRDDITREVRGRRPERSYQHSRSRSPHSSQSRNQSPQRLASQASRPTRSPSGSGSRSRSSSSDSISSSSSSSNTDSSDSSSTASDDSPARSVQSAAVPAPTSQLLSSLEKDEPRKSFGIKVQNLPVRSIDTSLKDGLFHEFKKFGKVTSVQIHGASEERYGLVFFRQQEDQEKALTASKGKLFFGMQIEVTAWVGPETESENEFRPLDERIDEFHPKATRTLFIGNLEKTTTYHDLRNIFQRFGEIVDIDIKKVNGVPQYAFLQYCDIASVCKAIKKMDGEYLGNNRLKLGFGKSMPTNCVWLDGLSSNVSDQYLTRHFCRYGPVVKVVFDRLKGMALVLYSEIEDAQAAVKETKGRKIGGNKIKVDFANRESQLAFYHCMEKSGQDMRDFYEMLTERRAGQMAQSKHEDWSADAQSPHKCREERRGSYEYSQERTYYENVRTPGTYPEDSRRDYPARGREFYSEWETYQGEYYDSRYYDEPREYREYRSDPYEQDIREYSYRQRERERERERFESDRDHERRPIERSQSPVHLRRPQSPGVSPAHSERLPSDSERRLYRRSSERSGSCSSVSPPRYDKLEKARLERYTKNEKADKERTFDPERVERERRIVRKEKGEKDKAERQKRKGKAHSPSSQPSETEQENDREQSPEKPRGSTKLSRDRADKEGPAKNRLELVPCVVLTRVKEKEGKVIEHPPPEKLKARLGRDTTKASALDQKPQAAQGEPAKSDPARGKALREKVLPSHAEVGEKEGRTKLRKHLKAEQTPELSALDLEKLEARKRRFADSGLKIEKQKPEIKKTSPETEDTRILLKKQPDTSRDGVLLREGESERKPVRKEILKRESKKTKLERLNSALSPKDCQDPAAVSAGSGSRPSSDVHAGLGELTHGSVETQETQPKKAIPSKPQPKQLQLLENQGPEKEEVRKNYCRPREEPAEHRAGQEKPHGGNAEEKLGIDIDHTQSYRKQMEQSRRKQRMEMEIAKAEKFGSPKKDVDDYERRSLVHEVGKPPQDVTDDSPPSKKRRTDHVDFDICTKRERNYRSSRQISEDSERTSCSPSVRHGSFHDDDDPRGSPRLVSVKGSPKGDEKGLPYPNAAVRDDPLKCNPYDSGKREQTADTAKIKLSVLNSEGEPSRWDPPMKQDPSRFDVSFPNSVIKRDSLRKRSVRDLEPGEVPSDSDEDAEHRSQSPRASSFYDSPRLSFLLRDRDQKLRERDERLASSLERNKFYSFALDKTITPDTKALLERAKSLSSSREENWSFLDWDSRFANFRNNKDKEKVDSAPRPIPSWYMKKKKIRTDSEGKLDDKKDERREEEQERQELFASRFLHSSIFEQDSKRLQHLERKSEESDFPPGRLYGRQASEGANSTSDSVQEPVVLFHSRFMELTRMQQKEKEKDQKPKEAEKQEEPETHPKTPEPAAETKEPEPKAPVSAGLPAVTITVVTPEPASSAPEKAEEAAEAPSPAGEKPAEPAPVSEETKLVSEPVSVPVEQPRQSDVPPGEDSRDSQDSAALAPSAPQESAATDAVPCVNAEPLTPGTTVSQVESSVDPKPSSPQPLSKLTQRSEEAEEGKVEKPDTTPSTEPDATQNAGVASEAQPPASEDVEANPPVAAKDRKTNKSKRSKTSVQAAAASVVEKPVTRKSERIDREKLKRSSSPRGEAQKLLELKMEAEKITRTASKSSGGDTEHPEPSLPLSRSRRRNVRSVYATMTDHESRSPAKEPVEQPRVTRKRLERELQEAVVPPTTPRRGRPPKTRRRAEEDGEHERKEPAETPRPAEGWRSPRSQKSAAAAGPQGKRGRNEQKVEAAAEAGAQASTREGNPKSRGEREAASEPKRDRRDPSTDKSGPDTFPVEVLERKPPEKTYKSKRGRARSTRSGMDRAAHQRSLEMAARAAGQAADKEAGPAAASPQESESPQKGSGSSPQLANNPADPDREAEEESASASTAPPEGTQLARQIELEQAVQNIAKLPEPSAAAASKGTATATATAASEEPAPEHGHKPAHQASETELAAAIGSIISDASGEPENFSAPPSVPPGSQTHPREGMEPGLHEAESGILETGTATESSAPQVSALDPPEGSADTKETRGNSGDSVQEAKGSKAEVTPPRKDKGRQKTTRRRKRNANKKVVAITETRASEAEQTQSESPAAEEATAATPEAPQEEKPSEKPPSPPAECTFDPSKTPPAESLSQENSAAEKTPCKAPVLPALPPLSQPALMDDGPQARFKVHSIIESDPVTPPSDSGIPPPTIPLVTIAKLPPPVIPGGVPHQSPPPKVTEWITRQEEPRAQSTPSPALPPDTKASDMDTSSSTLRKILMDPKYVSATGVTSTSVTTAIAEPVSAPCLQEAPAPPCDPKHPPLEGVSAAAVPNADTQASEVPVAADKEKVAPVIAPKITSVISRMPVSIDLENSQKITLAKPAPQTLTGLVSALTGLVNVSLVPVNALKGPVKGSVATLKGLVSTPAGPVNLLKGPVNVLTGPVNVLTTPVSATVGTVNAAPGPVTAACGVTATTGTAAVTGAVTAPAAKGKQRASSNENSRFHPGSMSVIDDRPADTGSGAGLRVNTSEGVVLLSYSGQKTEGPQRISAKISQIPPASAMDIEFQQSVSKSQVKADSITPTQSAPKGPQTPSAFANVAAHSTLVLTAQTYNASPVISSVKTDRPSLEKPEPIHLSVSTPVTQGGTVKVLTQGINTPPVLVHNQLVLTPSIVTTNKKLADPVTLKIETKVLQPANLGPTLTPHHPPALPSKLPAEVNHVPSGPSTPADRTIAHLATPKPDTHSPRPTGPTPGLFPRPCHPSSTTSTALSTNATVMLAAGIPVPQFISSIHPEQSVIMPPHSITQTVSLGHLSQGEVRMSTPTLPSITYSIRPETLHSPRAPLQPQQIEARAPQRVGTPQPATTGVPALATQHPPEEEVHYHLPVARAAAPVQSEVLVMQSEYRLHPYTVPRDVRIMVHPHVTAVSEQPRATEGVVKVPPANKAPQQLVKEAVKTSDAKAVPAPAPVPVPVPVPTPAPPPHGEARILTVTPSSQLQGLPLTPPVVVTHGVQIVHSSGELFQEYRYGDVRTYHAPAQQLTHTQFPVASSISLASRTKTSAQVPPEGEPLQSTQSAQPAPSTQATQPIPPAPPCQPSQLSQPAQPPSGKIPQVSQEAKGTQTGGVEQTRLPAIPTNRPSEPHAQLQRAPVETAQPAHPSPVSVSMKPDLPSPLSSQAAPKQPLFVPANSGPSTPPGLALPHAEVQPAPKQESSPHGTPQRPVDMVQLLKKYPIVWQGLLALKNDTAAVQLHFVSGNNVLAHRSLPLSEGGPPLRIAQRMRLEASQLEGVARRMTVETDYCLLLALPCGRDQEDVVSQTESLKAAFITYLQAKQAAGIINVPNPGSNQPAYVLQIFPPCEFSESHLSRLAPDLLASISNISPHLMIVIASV

Take 45S pre-rRNA: in [1] (female ES cells), the binding signal (fold over IgG) is less than 1.
The same measure, in the same setting: with Neat1 lncRNA the figure was less than 1.
Regarding Xist lncRNA, the binding signal (fold over input) with RALY, in the data set on RBM15 (Mus musculus), in the data set with MYEF2 (Mus musculus), with hnRNPC, in the data set with CELF1 (Mus musculus) and in the data set with PTBP1 (Mus musculus) was more than 4 throughout. Further, the binding signal (SILAC ratio Xist/U1) (in the data set on hnRNPM (Mus musculus); in data set [2]) was more than 3 each time. In [1] (RA-treated female ES cells, CLIP site 317-1056), this substance gave a binding signal (fold over IgG) of more than 45. Besides, the binding signal (% reduced binding) in [3] amounted to 97.
